{
  "source": "patent US20240240209A1",
  "about": "“SYNTHESIS OF ENANTIOPURE CIS-A-IRONE FROM A RENEWABLE CARBON SOURCE” (Agency for Science, Technology and Research, priority 2021, published 2024)",
  "assay": "Cell lysate reaction of pMT enzymes with psi-ionone, irones quantified by HS-SPME-GCMS",
  "type": "biochemical",
  "conditions": "AUC vs non-mutated (=1)",
  "experimental": "Using the structure of pMT1 in complex with the cofactor S-adenosyl-L-homocysteine (SAH) and the substrate teleocidin A1 (PDB id: 5GM2) as a template, pMT1 bound to each of the four isomers of α-irone was modelled with the aim of identifying amino acid residues that could be critical to increase cis-α-irone or decrease trans-α-irone production (FIGS. 2d and 2e). […] Site-directed mutagenesis of the 24 residues was carried out with degenerative primers. Subsequently, the mutants of each site were pooled together, and examined if the activity or product-selectivity of the pooled mutants were increased (FIG. 8). This reduced the number of screening reactions to 24, which is manageable when a high-throughput enzymatic assay is not available. […] One residue was chosen and subjected to site-saturation mutagenesis by using degenerative primers containing NNN or NNK. The plasmid library was then transformed into E. coli BL21 (DE3) cells and plated on agar plate containing autoinduction media^19. […] Subsequently, the colonies were collected and resuspended in phosphate saline buffer. Equal number of cells was taken for lysis and cell lysate reactions were carried out in capped SPME-GC vials at 28° C. for 2 days. HS-SPME-GCMS analysis was used to quantify the amount of irones produced by each pooled-colony reaction. […] 24 residues including the control Gly85 (G85m) were subjected to site-saturation mutagenesis, using pMT1 as the template. […] The amount of cis-α-irone produced was estimated based on the area under the gas chromatogram curve (AUC). The fold change is calculated by comparing the AUC of cis-α-irone produced by the mutant enzyme to that of non-mutated.\nFor each pMT mutant, it was transformed into BL21 and grown in autoinduction media with 5 mM lactose at 20° C. for 36 hrs. Then, cells were pelleted and concentrated 10 times by adding 1 ml of PBS. The OD600 was measured and 40*600 OD*ul cells were transferred into a new 1.5 ml tube. The cells were spun down and resuspended in 600 μl of lysis buffer (1×DNase buffer, 150 mM NaCl, 0.5% glycerol, 1 mg/ml lysozyme and 20U of DNasel). The cells were incubated for 2 hrs at 20° C. with shaking at 300 rpm. Following that, 2 cycles of freeze-thaw was done to completely lyse the cells. At the end of the 2nd thawing, the cell lysate was used to setup a 1 ml reaction in 2 ml GC vials. The reaction consisted of 50 mM Tris (pH7), 10 mM MgCl2, 60 mM NaCl, 0.2 mM SAM and 10 mg/L of psi-ionone and caryophyllene each. To this, 500 μl of cell lysate was added while the remaining 100 μl was used for SDS-PAGE to analyze the total and soluble protein expression. The reaction was incubated for 2 days at 28° C., 300 rpm prior to extraction of cis-α-irone with 500 μl hexane. From this, 20 μl of organic layer was taken into 180 μl hexane for GCMS analysis.\nFor the mutant pMT activity screening, the reactants and products were analyzed by head space solid phase microextraction (HS-SPME) coupled with an Agilent 5977B gas chromatography (GC) system equipped with Agilent DB-5 ms column (30 m×250 μm×0.25 μm) and mass spectrometry (MS) with high efficiency source. The reaction mixtures were carried out in SPME vials which were incubated at 60° C. for 20 mins to allow the release of volatile compounds. The absorbent fiber (50/30 μm divinylbenzol/carboxen/polydimethyl-SPME fiber, SUPELCO) was then exposed to the headspace of the vial for 20 mins. The extracted analytes were desorbed at the GC inlet at 250° C. for 1 min and injected into GC with a split ratio of 200:1. The GC oven temperature increased from 50° C. to 140° C. at a rate of 10° C./min and held at 140° C. for 10 min. Subsequently, the temperature was increased to 320° C. at a rate of 60° C./min and held at 320° C. for 2 mins.",
  "data": [
    {"molecule": "pMT1_M236P: pMT1 with M236P (protein) MPQEARTPQQQVTADEVGDWYDKFGEVYHLTLGESVHCGLWFPPDAPVPQDMELVTMSSQAQDRYTDYLIETLDPKAGQHLLDIGCGTGRTALKAARQRGIAVTGVAVSKEQIAAANRLAAGHGLTERLTFEVADAMRLPYEDESFDCAWAIESLCHMDRAKALGEAWRVLKPGGDLLVLESVVTEELTEPETALFETLYAANVPPRLGEFFDIVSGAGFHTLSLKDLSANLAMTPNVFALGVYSRRAEFTERFGAEFVDGLLAGLGSAQETLIRKTRFFMATLRKPAV", "values": [
      {"measurement": "fold change in cis-α-irone produced", "setting": "pMT1_M236 mutants", "value": 0.0}
    ]},
    {"molecule": "pMT1_Y200S: pMT1 with Y200S (protein) MPQEARTPQQQVTADEVGDWYDKFGEVYHLTLGESVHCGLWFPPDAPVPQDMELVTMSSQAQDRYTDYLIETLDPKAGQHLLDIGCGTGRTALKAARQRGIAVTGVAVSKEQIAAANRLAAGHGLTERLTFEVADAMRLPYEDESFDCAWAIESLCHMDRAKALGEAWRVLKPGGDLLVLESVVTEELTEPETALFETLSAANVPPRLGEFFDIVSGAGFHTLSLKDLSANLAMTMNVFALGVYSRRAEFTERFGAEFVDGLLAGLGSAQETLIRKTRFFMATLRKPAV", "values": [
      {"measurement": "fold change in cis-α-irone produced", "setting": "pMT1_Y200 mutants", "value": 0.2}
    ]},
    {"molecule": "pMT1_M236R: pMT1 with M236R (protein) MPQEARTPQQQVTADEVGDWYDKFGEVYHLTLGESVHCGLWFPPDAPVPQDMELVTMSSQAQDRYTDYLIETLDPKAGQHLLDIGCGTGRTALKAARQRGIAVTGVAVSKEQIAAANRLAAGHGLTERLTFEVADAMRLPYEDESFDCAWAIESLCHMDRAKALGEAWRVLKPGGDLLVLESVVTEELTEPETALFETLYAANVPPRLGEFFDIVSGAGFHTLSLKDLSANLAMTRNVFALGVYSRRAEFTERFGAEFVDGLLAGLGSAQETLIRKTRFFMATLRKPAV", "values": [
      {"measurement": "fold change in cis-α-irone produced", "setting": "pMT1_M236 mutants", "value": 0.0}
    ]},
    {"molecule": "pMT1_Y200Q: pMT1 with Y200Q (protein) MPQEARTPQQQVTADEVGDWYDKFGEVYHLTLGESVHCGLWFPPDAPVPQDMELVTMSSQAQDRYTDYLIETLDPKAGQHLLDIGCGTGRTALKAARQRGIAVTGVAVSKEQIAAANRLAAGHGLTERLTFEVADAMRLPYEDESFDCAWAIESLCHMDRAKALGEAWRVLKPGGDLLVLESVVTEELTEPETALFETLQAANVPPRLGEFFDIVSGAGFHTLSLKDLSANLAMTMNVFALGVYSRRAEFTERFGAEFVDGLLAGLGSAQETLIRKTRFFMATLRKPAV", "values": [
      {"measurement": "fold change in cis-α-irone produced", "setting": "pMT1_Y200 mutants", "value": 0.1}
    ]},
    {"molecule": "pMT1_R160Q: pMT1 with R160Q (protein) MPQEARTPQQQVTADEVGDWYDKFGEVYHLTLGESVHCGLWFPPDAPVPQDMELVTMSSQAQDRYTDYLIETLDPKAGQHLLDIGCGTGRTALKAARQRGIAVTGVAVSKEQIAAANRLAAGHGLTERLTFEVADAMRLPYEDESFDCAWAIESLCHMDQAKALGEAWRVLKPGGDLLVLESVVTEELTEPETALFETLYAANVPPRLGEFFDIVSGAGFHTLSLKDLSANLAMTMNVFALGVYSRRAEFTERFGAEFVDGLLAGLGSAQETLIRKTRFFMATLRKPAV", "values": [
      {"measurement": "fold change in cis-α-irone produced", "setting": "pMT1_R160 mutants", "value": 1.3}
    ]},
    {"molecule": "pMT1_M236S: pMT1 with M236S (protein) MPQEARTPQQQVTADEVGDWYDKFGEVYHLTLGESVHCGLWFPPDAPVPQDMELVTMSSQAQDRYTDYLIETLDPKAGQHLLDIGCGTGRTALKAARQRGIAVTGVAVSKEQIAAANRLAAGHGLTERLTFEVADAMRLPYEDESFDCAWAIESLCHMDRAKALGEAWRVLKPGGDLLVLESVVTEELTEPETALFETLYAANVPPRLGEFFDIVSGAGFHTLSLKDLSANLAMTSNVFALGVYSRRAEFTERFGAEFVDGLLAGLGSAQETLIRKTRFFMATLRKPAV", "values": [
      {"measurement": "fold change in cis-α-irone produced", "setting": "pMT1_M236 mutants", "value": 0.7}
    ]},
    {"molecule": "pMT1_Y200R (protein) MPQEARTPQQQVTADEVGDWYDKFGEVYHLTLGESVHCGLWFPPDAPVPQDMELVTMSSQAQDRYTDYLIETLDPKAGQHLLDIGCGTGRTALKAARQRGIAVTGVAVSKEQIAAANRLAAGHGLTERLTFEVADAMRLPYEDESFDCAWAIESLCHMDRAKALGEAWRVLKPGGDLLVLESVVTEELTEPETALFETLRAANVPPRLGEFFDIVSGAGFHTLSLKDLSANLAMTMNVFALGVYSRRAEFTERFGAEFVDGLLAGLGSAQETLIRKTRFFMATLRKPAV", "values": [
      {"measurement": "fold change in cis-α-irone produced", "setting": "pMT1_Y200 mutants", "value": 0.0}
    ]},
    {"molecule": "pMT1_R160S: pMT1 with R160S (protein) MPQEARTPQQQVTADEVGDWYDKFGEVYHLTLGESVHCGLWFPPDAPVPQDMELVTMSSQAQDRYTDYLIETLDPKAGQHLLDIGCGTGRTALKAARQRGIAVTGVAVSKEQIAAANRLAAGHGLTERLTFEVADAMRLPYEDESFDCAWAIESLCHMDSAKALGEAWRVLKPGGDLLVLESVVTEELTEPETALFETLYAANVPPRLGEFFDIVSGAGFHTLSLKDLSANLAMTMNVFALGVYSRRAEFTERFGAEFVDGLLAGLGSAQETLIRKTRFFMATLRKPAV", "values": [
      {"measurement": "fold change in cis-α-irone produced", "setting": "pMT1_R160 mutants", "value": 0.0}
    ]},
    {"molecule": "pMT1_E153P: pMT1 with E153P (protein) MPQEARTPQQQVTADEVGDWYDKFGEVYHLTLGESVHCGLWFPPDAPVPQDMELVTMSSQAQDRYTDYLIETLDPKAGQHLLDIGCGTGRTALKAARQRGIAVTGVAVSKEQIAAANRLAAGHGLTERLTFEVADAMRLPYEDESFDCAWAIPSLCHMDRAKALGEAWRVLKPGGDLLVLESVVTEELTEPETALFETLYAANVPPRLGEFFDIVSGAGFHTLSLKDLSANLAMTMNVFALGVYSRRAEFTERFGAEFVDGLLAGLGSAQETLIRKTRFFMATLRKPAV", "values": [
      {"measurement": "fold change in cis-α-irone produced", "setting": "pMT1_E153 mutants", "value": 0.0}
    ]},
    {"molecule": "pMT1_E153Q: pMT1 with E153Q (protein) MPQEARTPQQQVTADEVGDWYDKFGEVYHLTLGESVHCGLWFPPDAPVPQDMELVTMSSQAQDRYTDYLIETLDPKAGQHLLDIGCGTGRTALKAARQRGIAVTGVAVSKEQIAAANRLAAGHGLTERLTFEVADAMRLPYEDESFDCAWAIQSLCHMDRAKALGEAWRVLKPGGDLLVLESVVTEELTEPETALFETLYAANVPPRLGEFFDIVSGAGFHTLSLKDLSANLAMTMNVFALGVYSRRAEFTERFGAEFVDGLLAGLGSAQETLIRKTRFFMATLRKPAV", "values": [
      {"measurement": "fold change in cis-α-irone produced", "setting": "pMT1_E153 mutants", "value": 0.0}
    ]},
    {"molecule": "pMT1_E153R: pMT1 with E153R (protein) MPQEARTPQQQVTADEVGDWYDKFGEVYHLTLGESVHCGLWFPPDAPVPQDMELVTMSSQAQDRYTDYLIETLDPKAGQHLLDIGCGTGRTALKAARQRGIAVTGVAVSKEQIAAANRLAAGHGLTERLTFEVADAMRLPYEDESFDCAWAIRSLCHMDRAKALGEAWRVLKPGGDLLVLESVVTEELTEPETALFETLYAANVPPRLGEFFDIVSGAGFHTLSLKDLSANLAMTMNVFALGVYSRRAEFTERFGAEFVDGLLAGLGSAQETLIRKTRFFMATLRKPAV", "values": [
      {"measurement": "fold change in cis-α-irone produced", "setting": "pMT1_E153 mutants", "value": 0.0}
    ]},
    {"molecule": "pMT1_M236Q: pMT1 with M236Q (protein) MPQEARTPQQQVTADEVGDWYDKFGEVYHLTLGESVHCGLWFPPDAPVPQDMELVTMSSQAQDRYTDYLIETLDPKAGQHLLDIGCGTGRTALKAARQRGIAVTGVAVSKEQIAAANRLAAGHGLTERLTFEVADAMRLPYEDESFDCAWAIESLCHMDRAKALGEAWRVLKPGGDLLVLESVVTEELTEPETALFETLYAANVPPRLGEFFDIVSGAGFHTLSLKDLSANLAMTQNVFALGVYSRRAEFTERFGAEFVDGLLAGLGSAQETLIRKTRFFMATLRKPAV", "values": [
      {"measurement": "fold change in cis-α-irone produced", "setting": "pMT1_M236 mutants", "value": 0.0}
    ]}
  ]
}
